# Key:
# [1] = molecular target: CD20 on Jeko-1, Raji and Daudi cells (human) (UniProt P11836); experiment: FACS on Raji cells, PE anti-human secondary antibody
# [2] = molecular target: CD20 on Jeko-1, Raji and Daudi cells (human) (UniProt P11836); experiment: FACS on Daudi cells, PE anti-human secondary antibody
# [3] = molecular target: FcγIIIA Receptor on the effector cells (CD16 / FcγRIII) (human) (UniProt P08637); experiment: cell-based or functional assay
# [4] = molecular target: C1q Receptor in the complement system (rabbit serum as the source of complement) (rabbit); experiment: cell-based or functional assay
# Sequence of FcγIIIA Receptor on the effector cells (CD16 / FcγRIII) (human) (P08637 17-254): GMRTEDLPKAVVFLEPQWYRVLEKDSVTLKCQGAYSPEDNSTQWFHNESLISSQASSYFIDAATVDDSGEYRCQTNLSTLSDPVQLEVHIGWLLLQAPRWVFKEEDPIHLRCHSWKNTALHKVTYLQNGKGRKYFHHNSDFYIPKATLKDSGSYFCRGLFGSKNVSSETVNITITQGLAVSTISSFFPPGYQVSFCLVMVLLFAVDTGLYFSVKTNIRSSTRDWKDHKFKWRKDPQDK
# Sequence of CD20 on Jeko-1, Raji and Daudi cells (human) (P11836 whole entry): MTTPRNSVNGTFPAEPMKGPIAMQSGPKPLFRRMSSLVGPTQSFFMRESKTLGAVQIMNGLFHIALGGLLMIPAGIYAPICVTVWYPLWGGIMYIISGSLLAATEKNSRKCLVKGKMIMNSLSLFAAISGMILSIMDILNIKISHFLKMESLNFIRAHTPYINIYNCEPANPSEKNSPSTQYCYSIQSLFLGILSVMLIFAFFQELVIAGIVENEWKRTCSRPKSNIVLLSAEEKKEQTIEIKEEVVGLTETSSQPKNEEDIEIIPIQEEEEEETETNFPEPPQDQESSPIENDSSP
EC50 [1],EC50 [2],EC50 of ADCC assay Using Primary NK Cells [3],"CDC EC50 (Jeko-1 cells, rabbit complement) [4]",Substance
0.00873 ng/mL,0.000793 ng/mL,500 µg/mL,0.353 µg/mL,ARZERRA (ofatumumab) (antibody)
,,19 µg/mL,,GAZYVA (obinutuzumab) (antibody)
,,,1.21 µg/mL,OCREVUS (ocrelizumab) (antibody)
,,1390 µg/mL,0.245 µg/mL,RITUXAN (rituximab) (antibody)

# Source: US11814439
